Results taken from paper PMC3458437.
Where “and” joins values, the source holds several entries; their conditions need not be identical. Equal values may be shown once.

Substrate: O=P(O)(O)CCO
Test: O2 consumption, Clark-type oxygen electrode, initial rates
Type: biochemical, Nitrosopumilus maritimus
Details: co-substrate O2 about 250 μM; Fe(II)-reconstituted enzyme; labelled compound

B1: methylphosphonate synthase (MPnS) (Nitrosopumilus maritimus SCM1) (protein)
chain: MEKKIDFKPDSYLIRSGNNFLGILNDIKRRPEDAANELGVSIEEINSIISGKQKISPSLIEKAVNIWPVNERDFYIVSDDCSSGILIMTSQDSIKSSRIMERAGKPYYEYRDTAMSKTAPFRPEWILELCKVENNDPENPKAQWNNGHFMHQFTYFIGEVNFYYKDPEGKKHVAIMNTGDSMYITPFTPHTFTTRDGASQNGLILALTYGSKLTGDIQQELSSLSLDCGSQYALDFTNHENASLSLLEYYFELSNLTKEKFAKRTNFSMETLADFFTKKKLPTFDELKIIAKALNVNSRDLMPNDLTESKVIVKTHDQCDHWKYPESGNYEFYELASTTALPHSKAFEIDVSSSEDLNLDLKVGLHQYVYNIGDSALTINWNYENKTYQKSLNPGDSAYIKPFVPHNFRGNGKILILRIGGKISGDSQRELSFVGRENTQRAISETMQWFDPKGSNS
  Km: 7.1 ± 0.8 µM and 6.5 ± 1.5 µM and 7.2 ± 1.4 µM
  kcat: 0.17 ± 0.01 s⁻¹
  kcat/Km: 24000 M⁻¹ s⁻¹ (2×) and 26000 M⁻¹ s⁻¹
